Test results taken from publication doi:10.1101/2019.12.19.882373.

Key:
Assay in all cases: FRET or BRET
[1] = target: CipA cohesin 2 module (c2A), G144C, labelled with Cy3B (C. thermocellum)
[2] = target: CipA cohesin 7 module (c7A) (C. thermocellum) (UniProt Q06851)
[3] = target: cohesin 1 from scaffoldin CipC (c1C) (C. cellulolyticum)
[4] = target: cohesin module 7 of scaffoldin CipC (c7C) (C. cellulolyticum)
[5] = target: CipA cohesin 1 module (c1A) (C. thermocellum) (UniProt Q06851)

Substance | fraction of complexes in binding mode B1 [1] | fraction of complexes in binding mode B1 [2] | fraction of complexes in binding mode B1 (cyclophilin-treated) [1] | fraction of complexes in binding mode B1 [3] | fraction of complexes in binding mode B1 [4] | fraction of complexes in binding mode B1 [5]
dockerin celS single residue clasp mutant Y5A (celS_Y5A) (domain or fragment) | 0.42 | – | 0.2 | – | – | –
swapped version of dockerin celS (celS_Swap), helices H1 and H3 exchanged (domain or fragment) | 0.89 | 0.69 | – | – | – | 0.59

Now from value to substance:

fraction of complexes in binding mode B1 [1] | fraction of complexes in binding mode B1 [2] | fraction of complexes in binding mode B1 (cyclophilin-treated) [1] | fraction of complexes in binding mode B1 [3] | fraction of complexes in binding mode B1 [4] | fraction of complexes in binding mode B1 [5] | Substance
0.43 | 0.58 | – | – | – | – | dockerin CelS (type-I dockerin module of cellulase S), D63C, labelled with Alexa Fluor 647 (domain or fragment)
0.37 | 0.48 | – | – | – | – | dockerin from cellulase A (CelA) (domain or fragment)
– | – | – | 0.26 | 0.45 | – | dockerin from the cellulase 5A of C. cellulolyticum (CcCel5A) (domain or fragment)
